Experimental data taken from paper PMC5987771.

Molecular target: T1, Pot1pC (C-terminal domain of the Pot1 DNA-binding domain) (Schizosaccharomyces pombe, UniProt O13988 198-339, V199D)
T1 sequence: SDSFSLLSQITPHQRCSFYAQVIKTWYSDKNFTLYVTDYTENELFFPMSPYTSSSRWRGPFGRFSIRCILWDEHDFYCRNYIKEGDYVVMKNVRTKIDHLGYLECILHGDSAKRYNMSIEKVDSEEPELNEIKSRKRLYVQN
Test: X-ray crystallography

GGTTACGGT (mixed, ribose at 1 (rG1), rest DNA) [1R]
binding result: binds
